In US20140287471A1, “VARIANT CBH I POLYPEPTIDES WITH REDUCED PRODUCT INHIBITION” (BP CORPORATION NORTN AMERICA INC., priority 2011, published 2014):
Where a chain is given by its changes, count along the chain named. In names and notes the source's numbering stands.

B1: 268— Glu (protein, UniProt P62694 18-513, looked up, variant R268E)
Exoglucanase 1: QSACTLQSETHPPLTWQKCSSGGTCTQQTGSVVIDANWRWTHATNSSTNCYDGNTWSSTLCPDNETCAKNCCLDGAAYASTYGVTTSGNSLSIGFVTQSAQKNVGARLYLMASDTTYQEFTLLGNEFSFDVDVSQLPCGLNGALYFVSMDADGGVSKYPTNTAGAKYGTGYCDSQCPRDLKFINGQANVEGWEPSSNNANTGIGGHGSCCSEMDIWEANSISEALTPHPCTTVGQEICEGDGCGGTYSDNEYGGTCDPDGCDWNPYRLGNTSFYGPGSSFTLDTTKKLTVVTQFETSGAINRYYVQNGVTFQQPNAELGSYSGNELNDDYCTAEEAEFGGSSFSDKGGLTQFKKATSGGMVLVMSLWDDYYANMLWLDSTYPTNETSSTPGAVRGSCSTSSGVPAQVESQSPNAKVTFSNIKFGPIGSTGNPSGGNPPGGNRGTTTTRRPATTTGSSPGPTQSHYGQCGGIGYSGPTVCASGTTCQVLNPYYSQCL
B2: 268— Tyr (protein, UniProt P62694 18-513, looked up, variant R268Y)
Exoglucanase 1: B1 Exoglucanase 1 with E251Y
B3: 268— Phe (protein, UniProt P62694 18-513, looked up, variant R268F)
Exoglucanase 1: B1 Exoglucanase 1 with E251F
B4: 268_+411A Gln (protein, UniProt P62694 18-513, looked up, variant R268Q R411A)
Exoglucanase 1: B1 Exoglucanase 1 with E251Q, R394A
B5: 268— Asp (protein, UniProt P62694 18-513, looked up, variant R268D)
Exoglucanase 1: B1 Exoglucanase 1 with E251D
B6: 268— Trp (protein, UniProt P62694 18-513, looked up, variant R268W)
Exoglucanase 1: B1 Exoglucanase 1 with E251W
B7: 268— His (protein, UniProt P62694 18-513, looked up, variant R268H)
Exoglucanase 1: B1 Exoglucanase 1 with E251H
B8: R411T (protein, UniProt P62694 18-513, looked up, variant R411T)
Exoglucanase 1: B1 Exoglucanase 1 with E251R, R394T
B9: R411E (protein, UniProt P62694 18-513, looked up, variant R411E)
Exoglucanase 1: B1 Exoglucanase 1 with E251R, R394E
B10: R411L (protein, UniProt P62694 18-513, looked up, variant R411L)
Exoglucanase 1: B1 Exoglucanase 1 with E251R, R394L
B11: R411Q (protein, UniProt P62694 18-513, looked up, variant R411Q)
Exoglucanase 1: B1 Exoglucanase 1 with E251R, R394Q
B12: R411D (protein, UniProt P62694 18-513, looked up, variant R411D)
Exoglucanase 1: B1 Exoglucanase 1 with E251R, R394D
B13: R411N (protein, UniProt P62694 18-513, looked up, variant R411N)
Exoglucanase 1: B1 Exoglucanase 1 with E251R, R394N
B14: R268F (protein, UniProt P62694 18-513, looked up, variant R268F)
Exoglucanase 1: B1 Exoglucanase 1 with E251F
B15: 268N: CBH I variant with site 268 mutated to asparagine (protein, UniProt P62694 18-513, looked up, variant R268N)
Exoglucanase 1: B1 Exoglucanase 1 with E251N
B16: R268H (protein, UniProt P62694 18-513, looked up, variant R268H)
Exoglucanase 1: B1 Exoglucanase 1 with E251H
B17: R268C (protein, UniProt P62694 18-513, looked up, variant R268C)
Exoglucanase 1: B1 Exoglucanase 1 with E251C
B18: R411V (protein, UniProt P62694 18-513, looked up, variant R411V)
Exoglucanase 1: B1 Exoglucanase 1 with E251R, R394V
B19: R268Y (protein, UniProt P62694 18-513, looked up, variant R268Y)
Exoglucanase 1: B1 Exoglucanase 1 with E251Y
B20: R411C (protein, UniProt P62694 18-513, looked up, variant R411C)
Exoglucanase 1: B1 Exoglucanase 1 with E251R, R394C
B21: 268S: CBH I variant with site 268 mutated to serine (protein, UniProt P62694 18-513, looked up, variant R268S)
Exoglucanase 1: B1 Exoglucanase 1 with E251S
B22: R268T (protein, UniProt P62694 18-513, looked up, variant R268T)
Exoglucanase 1: B1 Exoglucanase 1 with E251T
B23: R411P (protein, UniProt P62694 18-513, looked up, variant R411P)
Exoglucanase 1: B1 Exoglucanase 1 with E251R, R394P
B24: R268I (protein, UniProt P62694 18-513, looked up, variant R268I)
Exoglucanase 1: B1 Exoglucanase 1 with E251I
B25: R411F (protein, UniProt P62694 18-513, looked up, variant R411F)
Exoglucanase 1: B1 Exoglucanase 1 with E251R, R394F
B26: R268R (protein, UniProt P62694 18-513, looked up)
Exoglucanase 1: B1 Exoglucanase 1 with E251R
B27: R268D (protein, UniProt P62694 18-513, looked up, variant R268D)
Exoglucanase 1: B1 Exoglucanase 1 with E251D
B28: 411 S: CBH I variant with site 411 mutated to serine (protein, UniProt P62694 18-513, looked up, variant R411S)
Exoglucanase 1: B1 Exoglucanase 1 with E251R, R394S
B29: 268A/411S: CBH I variant with site 268 mutated to alanine and site 411 to serine (protein, UniProt P62694 18-513, looked up, variant R268A R411S)
Exoglucanase 1: B1 Exoglucanase 1 with E251A, R394S

experiment: 4-MUL assay, specific activity (Example 2); type: biochemical; settings: primary screening; 10 μL enzyme; n=1
Protocol: (§1) CBH I activity on was measured using the 4-MUL assay using gluconolactone to inhibit any BG activity. The fluorogenic 4-MUL substrate (SIGMA) was prepared at 100 mM concentration in DMSO. Assays were run in black 96-well-flat-bottomed plates (Costar) and 4-MU fluorescence was read on a BioTek H4 plate reader (ex/em 365/450 nm). Assay plates were filled with buffer (final concentrations of 100 mM MES, pH 6, 25 mM gluconolactone, with or without cellobiose; cellobiose concentrations are listed with appropriate data sets), to which enzyme mixture was added (10-30 μl, 5 μg/mL final) and then assays were initiated by addition of 4-MUL (0.5 mM final concentration in 100 μl total volume). Enzyme mixtures were either CBH I variants from harvested supernatants or standards. Standards included: a negative control, consisting of harvested supernatant from the CBH I knock-out strain; a positive control, consisting of wild-type CBH I from harvested supernatants; and, a commercial CBH I standard (E-CBHI from Megazymes). Activity standards were run by serial dilution of commercial CBH I from 40 to 0.02 μg/mL and 4-MU (SIGMA, prepared at 20 mM in DMSO) (in dilution increments of 2-fold; all dilutions were made using harvested supernatant from the knock-out control). Kinetic rates were monitored over the first 15 mins following 4-MUL addition; initial rates were calculated based on data in the linear range. After 1 hr, a final endpoint read was taken, both before and after reaction quenching (100 μL of 200 mM Sodium Carbonate, pH 10.0). Activity was calculated for kinetic and endpoint reads; background resulting from the CBH I knock-out supernatant remained negligible. 4MU standard curves and HPLC quantification values were used to calculate specific activity.
The specific activity (SA) of the variant library was evaluated in a secondary 4-MUL assay. […] On average, a mutation at position 268 increases the specific activity by 2.5 fold over that of wild type. A mutation at 268 in combination with 411 is around 1.5-1.6 fold higher than wild-type, on average.

| Molecule | SA (μmol 4 MU/min/mg) (MUL Data) |
| --- | --- |
| B1 | 0.88 μmol 4 MU/min/mg |
| B2 | 0.65 μmol 4 MU/min/mg |
| B3 | 0.70 μmol 4 MU/min/mg |
| B4 | −0.45 μmol 4 MU/min/mg |
| B5 | 0.67 μmol 4 MU/min/mg |
| B6 | 1.31 μmol 4 MU/min/mg |
| B7 | 1.21 μmol 4 MU/min/mg |

experiment: 4-MUL cellobiose tolerance/inhibition assay, dose-response IC50 (Example 2); type: biochemical; settings: 1 mM cellobiose; primary screening; n=1
Protocol: as §1
Tolerance/inhibition values represent activity ratios and/or percent activity remaining/percent activity decreased in the presence versus the absence of cellobiose. Tolerant variants show less inhibition in the presence of cellobiose as compared to wild type, where an activity ratio of 1 (with vs. without a given concentration of cellobiose) is equivalent to 0% inhibition by cellobiose, or 100% tolerance. The effect of cellobiose on CBH I variant performance was monitored by dose-response in the 4MUL assay. Dose-response curves were generated by assaying variant activity in the presence of 6-8 different cellobiose concentrations ranging up to 100 mM cellobiose. CBH I samples were diluted to 5 μg/mL final concentration or were used directly in the case of protein quantification levels below 5 μg/mL. Half maximal inhibitory concentration (IC50) values were determined by plotting 4MUL activity versus cellobiose concentration and fitting with a four parameter dose-response fitting algorithm, with zero activity (or 100% inhibition) constrained to background activity (as established by CBH I knockout values) and with automatic outlier elimination (on GraphPad Prism 5).
Harvested supernatants from active variant isolates were evaluated for cellobiose tolerance at 1 mM cellobiose in the 4-MUL activity assay. Table 8 lists the tolerance of variants at 1 mM. […] Additional cellobiose concentrations at 0.25, 5, 10, 50, and 100 mM were tested leading to full dose-response curves for which half maximal inhibitory concentration (IC50) values were generated (Table 8). The IC50 values support that the variant library has decreased product inhibition, or increased tolerance to cellobiose, when compared to the wild-type enzyme (WT IC50=0.03 mM; see first entry, Table 8).
In one example, the cellobiose tolerance of the library was explored in more detail by generating dose-response curves and determining half maximal inhibitory concentration (IC50) values, the point at which the enzyme is 50% inhibited.

| Molecule | Tolerance at 1 mM CB (MUL Data) |
| --- | --- |
| B1 | 52% |
| B2 | 35% |
| B3 | 21% |
| B5 | 44% |
| B6 | 42% |
| B7 | 20% |

same assay, conditions: Secondary screening; 30 μl harvested supernatant (CBH I levels lower than 5 μg/mL); cellobiose range 0.00085-100 mM; read-out: IC50

| Molecule | IC50 |
| --- | --- |
| B8 | 2020 µM |
| B9 | 3380 µM |
| B10 | 6390 µM |
| B11 | 2510 µM |
| B12 | 1640 µM |
| B13 | 7900 µM |
| B14 | 515 µM |

same assay, conditions: Secondary screening; CBH I levels normalized to 5 μg/mL; cellobiose range 0.00085-100 mM; read-out: IC50

| Molecule | IC50 |
| --- | --- |
| B15 | 482 µM |
| B16 | 283 µM |
| B8 | 2000 µM |
| B17 | 351 µM |
| B18 | 2900 µM |
| B19 | 434 µM |
| B20 | 1310 µM |
| B21 | 452 µM |
| B22 | 349 µM |
| B23 | 1270 µM |
| B24 | 484 µM |
| B25 | 7580 µM |
| B12 | 1580 µM |
| B26 | 52 µM |
| B27 | 467 µM |
| B28 | 895 µM |

same assay, conditions: averaged IC50 values from Tables 8-11; read-out: measured IC50 of cellobiose (merged values)

| Molecule | IC50 |
| --- | --- |
| B15 | 490 µM |

same assay, conditions: primary screening; 10 μL enzyme; cellobiose range 0.0001-100 mM; n=1; read-out: IC50 (MUL Data)

| Molecule | IC50 |
| --- | --- |
| B1 | 870 µM |
| B2 | 450 µM |
| B3 | 400 µM |
| B5 | 900 µM |
| B6 | 610 µM |
| B7 | 250 µM |

same assay, conditions: secondary screening; CBH I levels normalized to 5 μg/mL; cellobiose range 0.0001-100 mM; read-out: Average IC50

| Molecule | IC50 |
| --- | --- |
| B15 | 405 µM |
| B16 | 209 µM |
| B17 | 335 µM |
| B18 | 3190 µM |
| B19 | 344 µM |
| B20 | 886 µM |
| B21 | 406 µM |
| B22 | 360 µM |
| B23 | 1050 µM |
| B24 | 320 µM |
| B25 | 5390 µM |
| B13 | 6720 µM |
| B26 | 46 µM |
| B27 | 431 µM |
| B28 | 762 µM |

same assay, conditions: serine variants; unit not given in the legend; read-out: IC50 values (representative IC50 curves, FIG. 9)

| Molecule | IC50 |
| --- | --- |
| B29 | 6800 µM |
| B21 | 450 µM |
| B28 | 890 µM |
